± gives the uncertainty stated by the source.
Assay: self-splicing fitness, log relative to wild type (ln ratio); higher = more splicing; Tetrahymena group I intron in knt gene, E. coli kanamycin selection, DiMSum; sequences stand for … in CUCUCU…GGAGGGAAAAGUUAUCAGGCAUGCACCUGGUAGCUAGUCUUUAAACCAAUAGAUUGCAUCGGUUUAAAAGGCAAGACCGUCAAAUUGCGGGAAAGGGGUCAACAGCCGUUCAGUACCAAGUCUCAGGGGAAACUUUGAGAUGGCCUUGCAAAGGGUAUGGUAAUAAGCUGACGGACAUGGUCCUAACCACGCAGCCAAGUCCUAAGUCAACAGAUCUUCUGUUGAUAUGGAUGCAGUUCACAGACUAAAUGUCGGUCGGGGAAGAUGUAUUCUUCUCAUAAGAUAUAGUCGGACCUCUCCUUAAUGGGAGCUAGCGGAUGAAGUGAUGCAACACUGGAGCCGCUGGGAACUAAUUUGUAUGCGAAAGUAUAUUGAUUAGUUUUGGAGUACUCGUGGUCG
Procedure, shortened: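 Pooled colonies went to amplicon sequencing on an Illumina HiSeq 2500 after six replicate transformations. The plates were LB agar with 100 μg/mL carbenicillin, 50 μM IPTG and 0.2% rhamnose, with or without 25 μg/mL kanamycin, incubated overnight at 37°C or 30°C. The E. coli BL21(DE3) library had all eight P1ex-region intron nucleotides randomised, the intron placed in the knt kanamycin-resistance gene on pET-22b(+). DiMSum fitness is the error-weighted combination of replicate fold changes, kanamycin against none, normalised to wild type.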

Row | Sequence | self-splicing fitness (ln) (30 °C) | self-splicing fitness (ln) (37 °C)
1 | UUGAAGCAAUAUUACGUGGA | -2.33 ± 0.11 | -1.6 ± 0.14
2 | GGAGAGCAAUAUUACGCGUA | -2.02 ± 0.37 | -1.42 ± 0.27
3 | GAUGAGCAAUAUUACGUGAA | -3.72 ± 0.22 | -1.91 ± 0.2
4 | UUCGAGCAAUAUUACGAGCC | -3.05 ± 0.21 | -2.68 ± 0.36
5 | CGGUAGCAAUAUUACGACAG | -0.475 ± 0.15 | 0.021 ± 0.16
6 | CCAAAGCAAUAUUACGGCCC | -3.57 ± 0.43 | –
7 | CUCCAGCAAUAUUACGUAAU | -4.88 ± 0.23 | -3.21 ± 0.2
8 | UACGAGCAAUAUUACGCCCA | -2.24 ± 0.27 | -1.02 ± 0.29
9 | AAUAAGCAAUAUUACGUAGU | -3.14 ± 0.15 | -2.15 ± 0.19
10 | AGGCAGCAAUAUUACGCUCG | -1.75 ± 0.091 | -0.442 ± 0.12
11 | UUAGAGCAAUAUUACGUAUA | -3.64 ± 0.43 | -0.846 ± 0.27
12 | UGGUAGCAAUAUUACGGUGG | -3.53 ± 0.2 | -1.94 ± 0.14
13 | UAGGAGCAAUAUUACGGGCU | -3.12 ± 0.48 | -1.64 ± 0.4
14 | UCGAAGCAAUAUUACGUAUA | -3.1 ± 0.22 | -1.58 ± 0.18
15 | CCUUAGCAAUAUUACGGCCU | – | -0.938 ± 0.34
16 | ACGGAGCAAUAUUACGUUCG | -1.33 ± 0.097 | -0.333 ± 0.13
17 | GGCCAGCAAUAUUACGACAA | -2.78 ± 0.24 | -1.71 ± 0.19
18 | CUACAGCAAUAUUACGUUUU | -4.17 ± 0.18 | -3.26 ± 0.22
19 | AUAGAGCAAUAUUACGUCCU | -1.42 ± 0.093 | -0.577 ± 0.14
20 | CGAGAGCAAUAUUACGCCUG | -3.12 ± 0.25 | -1.73 ± 0.28
21 | UAAGAGCAAUAUUACGUUGA | – | -1.97 ± 0.19
22 | GUAAAGCAAUAUUACGGGAA | -2.36 ± 0.11 | -0.287 ± 0.12
23 | GCGAAGCAAUAUUACGACUU | -1.4 ± 0.1 | -0.741 ± 0.12
24 | UGCGAGCAAUAUUACGUUCC | -2.19 ± 0.18 | -2.66 ± 0.34
25 | GAACAGCAAUAUUACGAUGC | -0.47 ± 0.079 | 0.126 ± 0.12
26 | ACCAAGCAAUAUUACGUAAA | -2.62 ± 0.13 | -1.38 ± 0.16

Row | Sequence | self-splicing fitness (ln) (30 °C) | self-splicing fitness (ln) (37 °C)
27 | CUGAAGCAAUAUUACGUCAA | -1.2 ± 0.065 | -0.435 ± 0.084
28 | UGGAAGCAAUAUUACGGAGG | -2.93 ± 0.27 | -0.696 ± 0.15
29 | CCGGAGCAAUAUUACGCCAA | – | -2.53 ± 0.26
30 | GUAUAGCAAUAUUACGUUUG | -4.31 ± 0.46 | -2.11 ± 0.2
31 | AGGCAGCAAUAUUACGUUGG | -3.79 ± 0.2 | -1.45 ± 0.11
32 | CGUAAGCAAUAUUACGGCCA | -2.86 ± 0.42 | -1.74 ± 0.21
33 | AUCGAGCAAUAUUACGGUGA | -2.39 ± 0.12 | -2.25 ± 0.15
34 | CGUCAGCAAUAUUACGAGAG | -2.91 ± 0.15 | -2.76 ± 0.25
35 | GAGAAGCAAUAUUACGGGCU | -2.57 ± 0.14 | -1.16 ± 0.14
36 | CACCAGCAAUAUUACGCUUG | -1.06 ± 0.052 | -0.22 ± 0.069
37 | UCGCAGCAAUAUUACGAUAA | -1.91 ± 0.14 | -0.243 ± 0.14
38 | GGUUAGCAAUAUUACGAAAA | -2.05 ± 0.41 | 0.949 ± 0.28
39 | UGCGAGCAAUAUUACGAUAU | – | -2.61 ± 0.36
40 | UAUGAGCAAUAUUACGGAUU | -2.96 ± 0.28 | -2.28 ± 0.31
41 | UUGUAGCAAUAUUACGAACU | -2.24 ± 0.11 | 0.102 ± 0.1
42 | AAGUAGCAAUAUUACGCCGG | -3.7 ± 0.3 | -1.59 ± 0.18
43 | CCUGAGCAAUAUUACGCACU | -4.16 ± 0.3 | -2.8 ± 0.24
44 | AGGGAGCAAUAUUACGGGUG | -4.12 ± 0.2 | -2.54 ± 0.29
45 | AUAUAGCAAUAUUACGAGUC | -2.97 ± 0.34 | -2.63 ± 0.45
46 | UGCUAGCAAUAUUACGUAAU | -2.42 ± 0.11 | -1.34 ± 0.13
47 | GCGCAGCAAUAUUACGAUUG | -2.57 ± 0.073 | -1.28 ± 0.1
48 | UCCAAGCAAUAUUACGACAC | -2.35 ± 0.31 | -1.42 ± 0.38
49 | UCGGAGCAAUAUUACGCUUA | -2.33 ± 0.33 | -1.89 ± 0.41
50 | GCAGAGCAAUAUUACGCCCA | -1.07 ± 0.28 | -0.895 ± 0.46
51 | AUCUAGCAAUAUUACGUGUC | -3.9 ± 0.36 | -2.64 ± 0.24
52 | CGACAGCAAUAUUACGUGAC | -3.67 ± 0.24 | -2.61 ± 0.31

Row | Sequence | self-splicing fitness (ln) (30 °C) | self-splicing fitness (ln) (37 °C)
53 | UUUAAGCAAUAUUACGCUCC | -2.1 ± 0.22 | -0.172 ± 0.29
54 | CGCAAGCAAUAUUACGUCUC | -3.36 ± 0.18 | -1.49 ± 0.15
55 | AUCCAGCAAUAUUACGACAU | 0.00336 ± 0.011 | 0.408 ± 0.032
56 | UCAAAGCAAUAUUACGUAUC | -3.73 ± 0.23 | -2.17 ± 0.19
57 | ACGCAGCAAUAUUACGUAAU | -2.48 ± 0.083 | -2.13 ± 0.12
58 | CCCUAGCAAUAUUACGCCAG | -3.87 ± 0.32 | -3.21 ± 0.37
59 | GCUUAGCAAUAUUACGCCAU | – | -2.2 ± 0.39
60 | UAGGAGCAAUAUUACGGACA | -3.74 ± 0.4 | -0.442 ± 0.18
61 | GAUCAGCAAUAUUACGUCUA | -0.327 ± 0.071 | 0.145 ± 0.086
62 | CCAUAGCAAUAUUACGGCUC | -2.85 ± 0.36 | -2.59 ± 0.45
63 | GAACAGCAAUAUUACGGCUC | -0.329 ± 0.1 | -0.256 ± 0.1
64 | AAAUAGCAAUAUUACGCGUG | -1.11 ± 0.078 | -0.804 ± 0.11
65 | CGCUAGCAAUAUUACGUCAC | -4.44 ± 0.42 | -3.4 ± 0.37
66 | AAAGAGCAAUAUUACGGAGG | -3.48 ± 0.22 | -2.3 ± 0.23
67 | AUUCAGCAAUAUUACGGGAA | -1.36 ± 0.12 | -0.871 ± 0.13
68 | GAGAAGCAAUAUUACGUCCC | -0.258 ± 0.28 | -0.337 ± 0.29
69 | GAUAAGCAAUAUUACGAUCU | 0.509 ± 0.17 | -1.55 ± 0.19
70 | CGCUAGCAAUAUUACGCCUU | -2.49 ± 0.27 | -0.069 ± 0.19
71 | UCUCAGCAAUAUUACGGAAA | -1.45 ± 0.14 | -0.892 ± 0.14
72 | UACCAGCAAUAUUACGUAUU | -2.16 ± 0.1 | -2.6 ± 0.18
73 | ACUAAGCAAUAUUACGGAUG | -2.49 ± 0.12 | -1.42 ± 0.13
74 | GACCAGCAAUAUUACGCUUG | -0.638 ± 0.089 | -0.56 ± 0.11
75 | CAUGAGCAAUAUUACGAUAC | -2.93 ± 0.35 | –
76 | AACCAGCAAUAUUACGAGUG | -0.0963 ± 0.045 | -0.0773 ± 0.06
77 | GAUGAGCAAUAUUACGAUGA | -2.24 ± 0.2 | -2.79 ± 0.27
